Measurements: US20200276237A1 (MIE UNIVERSITY, published 2020)

Legend:
[1] = target: T1, HLA-A2-MAGE-A4 p230 monomer (human); assay: SPR, BiacoreX100, HLA-A2-MAGE-A4 p230 on sensor chip CAP, purified scFv 12.5-200 nM, single cycle
T1 construct: Biotinylated soluble monomer, captured on neutravidin plates (ELISA) or on the Biacore sensor chip CAP; also called HLA-A2-MAGE-A4 monomer; MAGE-A4-derived peptide/HLA-A2 complex
Experimental: Determination of KD value by Biacore was determined by measuring the dynamic changes in detection sensitivity (resonance, reflecting the change in mass on the chip) over time. The dissociation rate constant (Kd) and the binding rate constant (Ka) were determined by dynamic change curve, the binding constant was determined from the ratio of the two constants.

[2] = target: T2, HLA-A2/MAGE-A10 risk peptide on T2 cells (human); assay: FACS on T2 cells pulsed with risk peptide
T2 construct: whole, on cells

[3] = target: T3, HLA-A2/MAGE-A8 risk peptide on T2 cells (human); assay: FACS on T2 cells pulsed with risk peptide
T3 construct: whole, on cells

[4] = target: T4, HLA-A2/MAGE-C2 risk peptide on T2 cells (human); assay: FACS on T2 cells pulsed with risk peptide
T4 construct: whole, on cells

[5] = target: T5, HLA-A2/RBBP5 risk peptide on T2 cells (human); assay: FACS on T2 cells pulsed with risk peptide
T5 construct: whole, on cells; Theoretical MHC IC50 is high (5880.0 nM)

[6] = target: T6, HLA-A2/MAGE-B2 risk peptide on T2 cells (human); assay: FACS on T2 cells pulsed with risk peptide
T6 construct: whole, on cells

[7] = target: T7, HLA-A2/MAGE-B10 risk peptide on T2 cells (human); assay: FACS on T2 cells pulsed with risk peptide
T7 construct: whole, on cells

[8] = target: T8, HLA-A2/MAGE-A11 risk peptide on T2 cells (human); assay: FACS on T2 cells pulsed with risk peptide
T8 construct: whole, on cells

- Kd [1]: 22 nM
- binding result [2]: no binding
- binding result [3]: no binding
- binding result [4]: no binding
- binding result [5]: no binding
- binding result [6]: no binding
- binding result [7]: no binding
- binding result [8]: no binding
B1: MAGE #17 scFv-FLAG/His (scFv)
scFv: QVQLVQSGAEVKKPGSSVKVSCKASGGTFSSYAISWVRQAPGQGLEWMGGIIPIFGTANYAQKFQGRVTITADKSTSTAYMELSSLRSEDTAVYYCARSPRRAYHDAFDIWGQGTMVTVSSGGGGSGGGGSGGGGSSYELTQPPSMSVAPGKTASITCGGDHIGSKSVHWYQQKPGQAPVLVVYDDSDRPSGIPERFSGSNSGNTATLTISGTQAMDEADYYCLAWDSSTAIFGGGTKLTVL
notes: Purified scFv-FLAG/His form, used for Biacore and for FACS on T2 cells (detection with anti-FLAG); also called clone #17; anti-MAGE #17; not shown: FLAG tag and His tag from the His/FLAG expression vector
